1 molecule from publication PMC8545088 can be followed below.

Experiment [1] has as its target PorZ from P. gingivalis (P. gingivalis W83). Put plainly: other fluorescence titration; microscale fluorescence (initial fluorescence, Monolith NT.115): 20 nM NT-647-labelled PorZ titrated with PorU (3 nM to 100 μM) in PBS, 25°C, without A-LPS; 1:1 binding model.
Experiment [2] has the same target. Put plainly: other fluorescence titration; microscale fluorescence (initial fluorescence, Monolith NT.115): 20 nM NT-647-labelled PorZ with 1 × 10^5 EU/ml A-LPS from W83, titrated with PorU (3 nM to 100 μM) in PBS, 25°C; 1:1 binding model.

B1: PorU sortase from P. gingivalis, hexahistidine-tagged (enzyme)
chain: QRAMGKTADRSLMASGHWVKIRVDASGVYRLTDEQLRANGFSDPSKVGVFGYGGGVLPEDLSRITTDDLPPVPVLRQGNALYFYAVGPVTWFYNPAKTTMEHTVNTYSTHGYYFLSDAAGAPLQMSQYTGGGASAEALIDYYDELMLHEQELYSPKESGRDLYGESFSAVNTRTVKFPLRGNTRSSGELGTVFSYIAKARSAGGGREMSLSANGILIFSDPFSMTSNEVSNSYLAGKKRRLYRSTPMNSLVNELRLDANYSMTGDAVNLDFIEVATQNDLRYDGAPMHIRRFSNLPVLGGESCRFVISEVPESLVVLQANSSLTASLVPVKTVGDKTIEFVAPPKGQDRRTINTFYAVDLSQASAPEILGAVPNQNLHGEEIPDLIIVSTQALLPEADRLATYRREKNGLKVLVVLQEQVFNEFSGGTPDATAYRLFAKMFYDRWKANAPVGETFPMQMLLFGDGAHDNRKVSVAWQKPYLQQTEFLLTFQAVNSTNVNSYVTDDYFGLLDDQPASVNIGWRNYNMAVGRFPVRTPAEARIAVDKTIRYEEDRESGAWRIRACFAADNGDKHATETSRLIDTVKRYAPAIMPVRAFQDVYPHVIENGLHSIPGAKKKMLETLQSGIILLNYAGHGGPAGWSDEHLLTLNDIHNFNYKHMPIWITATCDFANYDSQTTSAGEEVFLHEKSGTPIMFSTTRVVYNTQNEKINGFMLRRMFEKAKDGRYRTMGEIIRSAKQGMLSTVFPDSINQLSFFLMGDPSVRMNLPTHKVQLTAINGQDPEGQYGTIMLKSLERVALKGKVTDEKGTFDETFSGKVFLTVFDGRKKMTALEEEGNDLSLVYYDYPNVMYAGIAEVKDGLFETSFIVPKDVNYSEHEGRINLYAYNESTKAEAMGVDFSIRVQPGIPDEVTEDNTPPEIISCFLNDSTFRSGDEVNPTPLFMAEVFDLNGINITGSGVGHDITLCIDGRADLTYNLNAYFTSSATDAGVGTILFMIPALAEGDHTARLTVWDIFNNAVHHDFSFRVVDGIAPDVADVILFPNPVRESATFRIFHNRPGSDLNVVVEIYDFTGRLVNSLPVKTYSSSYGEPIEIKWDLTSKYGVKIGNGFYLYRCVVNSPGGQTASMAKKMIVVAQ
One may read the Kd as the equilibrium constant for the complex coming apart. A lower Kd goes with tighter binding. On to B1, for which the results for the Kd in experiment [1] and in experiment [2] were 3400 nM and 700 nM, respectively.
